Positions of bridges follow the written chain, without caps; N, C: chain ends. Non-standard residues stand in square brackets, D forms with d. No end group written: not given here.
What was measured:
Assay in all cases: SPR
[1] = biological target: T1, H1N1 A/California/07/2009 hemagglutinin ectodomain, biotinylated HA0 (influenza A virus A/California/07/2009 …, biotin on the BirA site)
[2] = biological target: T2, H5N1 A/Vietnam/1203/2004 hemagglutinin ectodomain, biotinylated HA0 (influenza A virus A/Vietnam/1203/2004 …)
[3] = biological target: T3, H1N1 A/New Caledonia/20/1999 hemagglutinin ectodomain, biotinylated HA0 (influenza A virus A/New …, biotin on the BirA site)
[4] = biological target: T1, H1N1 A/California/07/2009 hemagglutinin …; remark: listed apart in the source
[5] = biological target: T2, H5N1 A/Vietnam/1203/2004 hemagglutinin …; remark: listed apart in the source
[6] = biological target: T3, H1N1 A/New Caledonia/20/1999 …; remark: listed apart in the source

Binder	Kd [1]	Kd [2]	Kd [3]	koff [4]	koff [5]	koff [6]
PGVSLYEDPLGVAGGMGVY (also: cyclic peptide, ring closure not given here) [cyclic peptide CP4]	120 nM	290 nM	360 nM	0.04 s⁻¹	0.32 s⁻¹	0.06 s⁻¹
[dP]PVSLYEDPLGVAGGMGVY (also: cyclic peptide, ring closure not given here) [cyclic peptide CP1]		1800 nM	20 nM	0.01 s⁻¹	0.14 s⁻¹	0.02 s⁻¹
PGLYEDPLGVAGGMG (also: cyclic peptide, ring closure not given here) [cyclic peptide CP6]	1910 nM	3020 nM	800 nM	0.83 s⁻¹	0.95 s⁻¹	0.42 s⁻¹
PPLYEDPLGVAGGMG (also: one Pro of the Pro-Pro template is D, which not given here, cyclic peptide, ring closure not given here) [cyclic peptide CP3]	2390 nM	2040 nM	1180 nM	1.07 s⁻¹	0.76 s⁻¹	0.45 s⁻¹
LYEDPLGVAGGMG (non-template-based cyclic peptide (direct head-to-tail cyclization)) [cyclic peptide CP14]	1070 nM	2740 nM	640 nM			
CLYRDPLGVAGGMGC (disulfide 1-15) [cyclic peptide CP8]	330 nM	320 nM	850 nM	0.1 s⁻¹	0.98 s⁻¹	0.23 s⁻¹
P[dP]SLYEDPLGVAGGMGV (also: cyclic peptide, ring closure not given here) [cyclic peptide CP2]	7280 nM		3080 nM	3.48 s⁻¹		1.08 s⁻¹
CYRDPLGVAGEMC (also: cyclic peptide, ring closure not given here) [cyclic peptide CP13]	12000 nM	8910 nM	32000 nM			

From paper PMC12714728 (2025)
